From publication PMC9367177

Target: CC12.1 (human)
Assay: SPR

Chain of CC12.1 (human) (heavy, as listed by the source, chain 1 of 2): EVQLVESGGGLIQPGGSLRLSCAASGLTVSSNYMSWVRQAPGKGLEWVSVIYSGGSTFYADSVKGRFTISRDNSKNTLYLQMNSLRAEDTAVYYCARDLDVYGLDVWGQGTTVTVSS
Chain of CC12.1 (human) (light, as listed by the source, chain 2 of 2): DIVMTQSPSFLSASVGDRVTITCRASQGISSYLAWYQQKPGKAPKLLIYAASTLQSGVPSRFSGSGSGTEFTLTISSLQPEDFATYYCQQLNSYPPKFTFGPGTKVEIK

## SARS-CoV-2 RBD Alpha (B.1.1.7) (from UniProt P0DTC2) (domain or fragment)
  Kd: 14.4 nM
